Values quoted from earlier work in patent US7759315B2, “Treatment of inflammatory conditions of the intestine” (CSL Behring AG, priority 2005, dated 2010).
Non-standard residues stand in square brackets, D forms with d. No end group written: not given here. Orn = NCCC[C@H](N)C(=O)O; Aib = CC(C)(N)C(=O)O

Molecular target: T1, LCAT (Homo sapiens, UniProt P04180)
T1 sequence (P04180 25-440): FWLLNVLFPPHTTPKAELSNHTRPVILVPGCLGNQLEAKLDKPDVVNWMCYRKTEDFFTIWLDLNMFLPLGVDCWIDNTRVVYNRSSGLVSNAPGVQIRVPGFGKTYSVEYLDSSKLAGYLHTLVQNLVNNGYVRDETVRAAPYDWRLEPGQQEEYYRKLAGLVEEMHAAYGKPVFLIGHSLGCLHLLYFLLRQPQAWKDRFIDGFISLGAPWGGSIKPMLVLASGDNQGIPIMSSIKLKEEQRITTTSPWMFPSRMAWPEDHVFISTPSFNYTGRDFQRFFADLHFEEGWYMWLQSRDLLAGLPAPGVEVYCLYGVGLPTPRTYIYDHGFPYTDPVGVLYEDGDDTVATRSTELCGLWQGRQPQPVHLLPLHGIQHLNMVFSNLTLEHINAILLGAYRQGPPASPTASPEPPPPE

Row | Substance | ACTIVITY (%) LCAT [%]
1 | NVLDLFRELLEELKQKLK* (not fully specified (N-terminus, C-terminus); printed as NVLDLFRELLEELKQKLK*) [Peptide 200] | 75
2 | PLLELFENLLERLLDALQKKLK [Peptide 150] | 57
3 | pvLDLFRELLNELLEALKQKLK [Peptide 48] | 22
4 | PVLELFDNLLEKLLEALQKKLR [Peptide 178] | 9
5 | PVLELFENLLEKLLDALQKKLK [Peptide 169] | 17
6 | PVLDLFREGLEELKQKLK* (not fully specified (N-terminus, C-terminus); printed as PVLDLFREGLEELKQKLK*) [Peptide 228] | 0
7 | VVLDLFRELLNELLEALKQKLK [Peptide 53] | 19
8 | PVLDEFRELLNELLEALKQKLK [Peptide 79] | 9
9 | ~~~DEFREKLNEXLEALKQKLK (DEFREKLNE[Aib]LEALKQKLK; not fully specified (C-terminus); printed as ~~~DEFREKLNEXLEALKQKLK) [Peptide 90] | 6
10 | PVLELFENLLEOLLDALQOOLO (PVLELFENLLE[Orn]LLDALQ[Orn][Orn]L[Orn]) [Peptide 170] | 17
11 | GVLDLFRELLNELLEALKQKLK [Peptide 18] | 58
12 | PVLDEFREKLNEXLEALKQKL~ (PVLDEFREKLNE[Aib]LEALKQKL; not fully specified (C-terminus); printed as PVLDEFREKLNEXLEALKQKL~) [Peptide 58] | 18
13 | PVLDLFREGWEELKQKLK [Peptide 224] | 8
14 | PVLDLFRELLNELLELLKQKLK [Peptide 127] | 47
15 | PVLDEFRKKLNEXLEALKQKLK (PVLDEFRKKLNE[Aib]LEALKQKLK; not fully specified (C-terminus)) [Peptide 69] | 13
16 | PVLELFENLLERLLELLNKKLK [Peptide 175] | 13
17 | PVLDEFREKLNEXXEALKQKLK (PVLDEFREKLNE[Aib][Aib]EALKQKLK; not fully specified (C-terminus)) [Peptide 110] | 0
18 | PVFELFENLLERLLDALQKKLK [Peptide 152] | 50
19 | GVLDLFRELLNELLEALKQKLKK [Peptide 2] | 105
20 | PVLELFENLLEKLLDLLQKKLK [Peptide 171] | 16
21 | PVLDEFREKLNEELEALWQKLK [Peptide 121] | 0
22 | PVLDEFWEKLNEXLEALKQKLK (PVLDEFWEKLNE[Aib]LEALKQKLK; not fully specified (C-terminus)) [Peptide 73] | 10
23 | PVLDLFREKLNELLEALKQKLK [Peptide 33] | 33
24 | PVLDLFRELLNELLEAGKQKLK [Peptide 12] | 70
25 | PWLDEFREKLNEXLEALKQKLK (PWLDEFREKLNE[Aib]LEALKQKLK; not fully specified (C-terminus)) [Peptide 64] | 15

Row | Substance | ACTIVITY (%) LCAT [%]
26 | PKLDEFREKLNEXLEALKQKLK (PKLDEFREKLNE[Aib]LEALKQKLK; not fully specified (C-terminus)) [Peptide 115] | 0
27 | PVLDEFREKLNELLEALKQKLK [Peptide 84] | 7
28 | PVLDLFDNLLDRLLDLLNKKLK [Peptide 173] | 15
29 | PVLDLFRELLNELLE~~~~~~~ [Peptide 97] | 4
30 | PVLDKFREKLNEXLEALKQKLK (PVLDKFREKLNE[Aib]LEALKQKLK; not fully specified (C-terminus)) [Peptide 74] | 10
31 | PVLELFKELLEELKQKLK [Peptide 216] | 35
32 | pvlelfenllerlldalgkklk ([dP][dV][dL][dE][dL][dF][dE][dN][dL][dL][dE][dR][dL][dL][dD][dA][dL][dQ][dK][dK][dL][dK]) [Peptide 174] | 13
33 | PVLDLFRNLLEELLKALEQKLK [Peptide 57] | 18
34 | PLLDLFKELLEELKQKLK* (not fully specified (N-terminus, C-terminus); printed as PLLDLFKELLEELKQKLK*) [Peptide 201] | 74
35 | ~~LDEFREKLNEXLEALKQKLK (LDEFREKLNE[Aib]LEALKQKLK; not fully specified (C-terminus); printed as ~~LDEFREKLNEXLEALKQKLK) [Peptide 82] | 8
36 | PVLELFENLLERLLEALQKKLK [Peptide 161] | 27
37 | PELDEFREKLNEXLEALKQKLK (PELDEFREKLNE[Aib]LEALKQKLK; not fully specified (C-terminus)) [Peptide 117] | 0
38 | PVLELFLNLLEKLLDALQKKLK [Peptide 166] | 22
39 | PVLDEFREKLNELXEALKQKLK (PVLDEFREKLNEL[Aib]EALKQKLK) [Peptide 71] | 11
40 | PHLDEFREKLNEXLEALKQKLK (PHLDEFREKLNE[Aib]LEALKQKLK; not fully specified (C-terminus)) [Peptide 116] | 0
41 | PVLELFLNLLERLLDALQKKLK [Peptide 156] | 35
42 | PVLDEFREKLNKXLEALKQKLK (PVLDEFREKLNK[Aib]LEALKQKLK; not fully specified (C-terminus)) [Peptide 77] | 9
43 | PVLELFDNLLERLLDALQKKLK [Peptide 179] | 8
44 | PVLDLLRELLEELKQKLK* (not fully specified (N-terminus, C-terminus); printed as PVLDLLRELLEELKQKLK*) [Peptide 191] | 100
45 | PVLDLFRELGNELLEALKQKLK [Peptide 9] | 83
46 | pVLDLFRELLNELLEALKQKLKK ([dP]VLDLFRELLNELLEALKQKLKK; not fully specified (C-terminus); printed as pVLDLFRELLNELLEALKQKLKK) [Peptide 5] | 90
47 | PVLELLKELLEELKQKLK* (not fully specified (N-terminus, C-terminus); printed as PVLELLKELLEELKQKLK*) [Peptide 207] | 50
48 | PVLDEFREKLNEXSEALKQKLK (PVLDEFREKLNE[Aib]SEALKQKLK; not fully specified (C-terminus)) [Peptide 112] | 0
49 | PVLDLFREWLEELKQKLK* (not fully specified (N-terminus, C-terminus); printed as PVLDLFREWLEELKQKLK*) [Peptide 205] | 60
50 | PVLELFDNLLDKLLDALQKKLR [Peptide 180] | 8
